This note sets out measurements from US20050203012A1.

The target in assay [1] is human PTH-1 receptor (human) (UniProt Q03431). Description: cell-based or functional assay.
The target is the same in assay [2]. Description: radioligand binding on HKRK B7 cells, no competitor, 2-8° C. for 6 hr.
Assay [3] has the same target. The assay can be described thus: competition with ^125I-[Nle^8,21, Tyr^34]rat PTH-(1-34) on HKRK B7 cells.

Sequence of human PTH-1 receptor (human) (Q03431 27-593): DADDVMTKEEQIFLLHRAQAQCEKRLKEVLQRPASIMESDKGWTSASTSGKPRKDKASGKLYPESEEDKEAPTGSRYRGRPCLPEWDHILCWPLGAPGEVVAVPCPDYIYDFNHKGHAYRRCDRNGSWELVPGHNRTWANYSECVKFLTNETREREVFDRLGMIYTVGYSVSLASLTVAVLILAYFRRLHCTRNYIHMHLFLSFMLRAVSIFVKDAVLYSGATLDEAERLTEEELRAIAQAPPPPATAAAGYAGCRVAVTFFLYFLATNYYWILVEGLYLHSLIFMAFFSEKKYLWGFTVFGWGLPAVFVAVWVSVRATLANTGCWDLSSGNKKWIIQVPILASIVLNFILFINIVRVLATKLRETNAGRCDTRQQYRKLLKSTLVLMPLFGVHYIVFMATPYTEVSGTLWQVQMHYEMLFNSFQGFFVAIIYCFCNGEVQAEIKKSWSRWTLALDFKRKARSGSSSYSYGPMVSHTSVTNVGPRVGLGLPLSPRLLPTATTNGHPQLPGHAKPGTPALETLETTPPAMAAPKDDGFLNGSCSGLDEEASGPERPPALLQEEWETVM

In assay [1], “[Tyr^0]hPTH-(1-34) (from UniProt P01270 32-65) (peptide)” yielded a PLC activity at 1000 nM peptide (percent of basal) of 105.
With “^125I-[Nle^8,21, Tyr^34]rat PTH-(1-34) (from UniProt P04089 32-65) (peptide)”, in assay [2], the cell-associated radioactivity (binding), basal came to 25500 cpm/well.
“desamino-[Ala^1]hPTH-(1-34) (from UniProt P01270 32-65) (peptide)” returned a PLC Activity (% Basal) at 1000 nM in assay [1] of 106 % Basal.
Same read-out and setting: the figure for “desamino-[Gly^1]hPTH-(1-34) (from UniProt P01270 32-65) (peptide)” is 108 % Basal.
In turn, “desamino-hPTHrP(1-36) (from UniProt P12272 37-72) (peptide)” showed a PLC activation at 1000 nM peptide (percent of basal) in assay [1] of 101.
Take “hPTH-(1-34) (from UniProt P01270 32-65) (peptide)”: in assay [3], the cell-associated radioactivity (binding) in the presence of maximal concentrations of hPTH-(1-34) turned out to be 956 cpm/well. In assay [1], this substance had a Cyclic AMP accumulation (% Maximum) at 0.01 nM of 1.7 % Maximum, a Cyclic AMP accumulation (% Maximum) at 0.1 nM of 14 % Maximum, a Cyclic AMP accumulation (% Maximum) at 1 nM of 45 % Maximum and a Cyclic AMP accumulation (% Maximum) at 10 nM of 93 % Maximum. In addition, in assay [1], the Cyclic AMP accumulation (% Maximum) at 100 nM was determined as 96 % Maximum, the Cyclic AMP accumulation (% Maximum) at 1000 nM worked out at 100 % Maximum, the EC50 of PLC activation amounted to 30 nM and the IP3 Formation (% Maximum) at 1000 nM came to 87 % Maximum. In assay [1], this substance yielded an IP3 Formation (% Maximum) at 10000 nM of 100 % Maximum, an IP3 formation at maximal concentrations of hPTH-(1-34) of 1910 cpm/well, a PLC Activity (% Basal) at 1000 nM of 854 % Basal and a cAMP accumulation at maximal concentrations of hPTH-(1-34) (pmoles/well/15 min) of 207.
“hPTH-(2-34) (from UniProt P01270 33-65) (peptide)” had a PLC Activity (% Basal) at 1000 nM in assay [1] of 88 % Basal.
For the substance “hPTHrP(1-36) (from UniProt P12272 37-72) (peptide)”, the PLC activation at 1000 nM peptide (percent of basal) in assay [1] came out at 178.
